Changes are numbered by the printed parent chain.
B1: humanized anti-L1CAM antibody hz49E10H1H7L6 (antibody, V domains shown)
VH: QVQLQESGPGLVKPSQTLSLTCTVSGGSISSDYAWNWIRQPPGKGLEWMGYITYSGTTTYNPSLKSRITISRDTSKNQFSLKLSSVTAADTAVYYCTLDHYGNYAYFDYWGQGTTVTVSS
VL: DIQMTQSPSSLSASVGDRVTITCRASSSVSFMHWYQQKPGKAPKPWIYASSNLVSGVPSRFSGSGSGTDFTLTISSLQPEDFATYYCQQWSSNPSTFGGGTKVEIK
B2: humanized anti-L1CAM antibody hz103E9B3H6L5 (antibody, V domains shown)
VH: EVQLVQSGAEVKKPGASVKVSCKASGYTFTSYTMHWVRQAPGQGLEWMGDINPNYGGTSYNEKFKDRATMTTDTSTSTAYMELRSLRSDDTAVYYCAREGATGTWYFDVWGQGTTVTVSS
VL: B1 VL with R24S, H33F, W46L, A49L, S50T, V54A, S91R, S95P
B3: humanized anti-L1CAM antibody hz103E9B3H5L5 (antibody, V domains shown)
VH: B2 VH with A68V
VL: B1 VL with R24S, H33F, W46L, A49L, S50T, V54A, S91R, S95P
B4: humanized anti-L1CAM antibody hz49E10H1H6L6 (antibody, V domains shown)
VH: B1 VH with Q1D, M49I, I68V
VL: B1 VL
B5: humanized anti-L1CAM antibody hz49E10H1H6L5 (antibody, V domains shown)
VH: B1 VH with Q1D, M49I, I68V
VL: B1 VL with P45L, W46L
B6: humanized anti-L1CAM antibody hz49E10H1H5L6 (antibody, V domains shown)
VH: B1 VH with Q1D, T97A, L98R
VL: B1 VL
B7: humanized anti-L1CAM antibody hz49E10H1H8L6 (antibody, V domains shown)
VH: B1 VH with Q1D, K44N
VL: B1 VL
B8: humanized anti-L1CAM antibody hz103E9B3H6L4 (antibody, V domains shown)
VH: B2 VH
VL: B1 VL with R24S, H33F, P45L, W46L, A49L, S50T, V54A, S91R, S95P
B9: humanized anti-L1CAM antibody hz49E10H1H4L5 (antibody, V domains shown)
VH: B1 VH with M49I, I68V, R72V, T97A, L98R
VL: B1 VL with P45L, W46L
B10: humanized anti-L1CAM antibody hz49E10H1H5L7 (antibody, V domains shown)
VH: B1 VH with Q1D, T97A, L98R
VL: B1 VL with D1Q, F70Y
B11: humanized anti-L1CAM antibody hz103E9B3H6L6 (antibody, V domains shown)
VH: B2 VH
VL: B1 VL with R24S, H33F, A49L, S50T, V54A, S91R, S95P
B12: humanized anti-L1CAM antibody hz103E9B3H7L6 (antibody, V domains shown)
VH: B2 VH with M48I, M70L
VL: B1 VL with R24S, H33F, A49L, S50T, V54A, S91R, S95P
B13: humanized anti-L1CAM antibody hz49E10H1H8L5 (antibody, V domains shown)
VH: B1 VH with Q1D, K44N
VL: B1 VL with P45L, W46L
B14: humanized anti-L1CAM antibody hz103E9B3H5L6 (antibody, V domains shown)
VH: B2 VH with A68V
VL: B1 VL with R24S, H33F, A49L, S50T, V54A, S91R, S95P
B15: humanized anti-L1CAM antibody hz49E10H1H7L5 (antibody, V domains shown)
VH: B1 VH
VL: B1 VL with P45L, W46L
B16: humanized anti-L1CAM antibody hz49E10H1H4L7 (antibody, V domains shown)
VH: B1 VH with M49I, I68V, R72V, T97A, L98R
VL: B1 VL with D1Q, F70Y
B17: humanized anti-L1CAM antibody hz49E10H1H4L6 (antibody, V domains shown)
VH: B1 VH with M49I, I68V, R72V, T97A, L98R
VL: B1 VL
B18: humanized anti-L1CAM antibody hz49E10H1H5L5 (antibody, V domains shown)
VH: B1 VH with Q1D, T97A, L98R
VL: B1 VL with P45L, W46L
B19: humanized anti-L1CAM antibody hz49E10H1H6L7 (antibody, V domains shown)
VH: B1 VH with Q1D, M49I, I68V
VL: B1 VL with D1Q, F70Y
B20: humanized anti-L1CAM antibody hz49E10H1H8L7 (antibody, V domains shown)
VH: B1 VH with Q1D, K44N
VL: B1 VL with D1Q, F70Y
B21: humanized anti-L1CAM antibody hz49E10H1H7L7 (antibody, V domains shown)
VH: B1 VH
VL: B1 VL with D1Q, F70Y
B22: humanized anti-L1CAM antibody hz103E9B3H5L4 (antibody, V domains shown)
VH: B2 VH with A68V
VL: B1 VL with R24S, H33F, P45L, W46L, A49L, S50T, V54A, S91R, S95P
B23: humanized anti-L1CAM antibody hz103E9B3H7L5 (antibody, V domains shown)
VH: B2 VH with M48I, M70L
VL: B1 VL with R24S, H33F, W46L, A49L, S50T, V54A, S91R, S95P
B24: humanized anti-L1CAM antibody hz103E9B3H7L4 (antibody, V domains shown)
VH: B2 VH with M48I, M70L
VL: B1 VL with R24S, H33F, P45L, W46L, A49L, S50T, V54A, S91R, S95P
B25: humanized anti-L1CAM antibody hz26A12C1H3L2 (antibody, V domains shown)
VH: QVQLVQSGAEVKKPGSSVKVSCKASGYTFTNYWIQWVRQAPGQGLEWIGYINPSTYYSDYAQKFQGRVTLTADESTSTAYMELSSLRSEDTAVYYCARRQFGLPLFDYWGQGTTVTVSS
VL: DIQMTQSPSSLSASVGDRVTITCRASQDVGTAVAWYQQKPGKVPKLLIYWASTLHSGVPSRFSGSGSGTDFTLTISSLQPEDVATYYCQQYSNYPLTFGGGTKVEIK
B26: humanized anti-L1CAM antibody hz26A12C1H4L1 (antibody, V domains shown)
VH: B25 VH with A61N, E74K
VL: B25 VL with V33L, H55Q
B27: humanized anti-L1CAM antibody hz26A12C1H2L1 (antibody, V domains shown)
VH: B25 VH with I48M, L70I
VL: B25 VL with V33L, H55Q
B28: humanized anti-L1CAM antibody hz26A12C1H3L1 (antibody, V domains shown)
VH: B25 VH
VL: B25 VL with V33L, H55Q
B29: humanized anti-L1CAM antibody hz26A12C1H2L2 (antibody, V domains shown)
VH: B25 VH with I48M, L70I
VL: B25 VL
B30: humanized anti-L1CAM antibody hz26A12C1H3L3 (antibody, V domains shown)
VH: B25 VH
VL: B25 VL with Y87F
B31: humanized anti-L1CAM antibody hz26A12C1H4L2 (antibody, V domains shown)
VH: B25 VH with A61N, E74K
VL: B25 VL
B32: humanized anti-L1CAM antibody hz26A12C1H4L3 (antibody, V domains shown)
VH: B25 VH with A61N, E74K
VL: B25 VL with Y87F
B33: humanized anti-L1CAM antibody hz26A12C1H2L3 (antibody, V domains shown)
VH: B25 VH with I48M, L70I
VL: B25 VL with Y87F

Molecular target: T1, human L1CAM (L1 cell adhesion molecule), endogenously expressed on the surface of HeLa cells (human, UniProt P32004 20-1257)
T1 construct: whole, on cells; also called CD171
Assay: flow cytometry on HeLa cells (endogenous human L1CAM)
Protocol: The experimental principle is as follows: HeLa cells express high levels of L1CAM protein on their surface. After incubating humanized L1CAM antibodies with the cells, the binding ability of the antibodies to L1CAM on the surface of HeLa cells can be determined by flow cytometry. The experimental method is descripted as following: Humanized L1CAM antibodies (Human IgG1-Kappa) are diluted in complete medium in a four-fold serial dilution, with seven concentration gradient points. HeLa cells are cultured in DMEM complete medium (Corning, 10-013-CVR) containing 10% FBS (Gibco, 10099-141) and 100 U/mL penicillin mixture (Thermofisher, 15140122). When the cell coverage in the culture container reaches 80-90%, TrypLE (Thermofisher, 12604-013) is used to digest the HeLa cells from the culture container, and they are seeded in a 96-well plate (AXYGEN, P-96-450V-C) at a density of 2.2×10⁶ cells/ml, with 100,000 cells (45 μL complete medium) per well. Then, 5 μL of the antibody dilution is added to each well, gently mixed, and the 96-well plate is incubated at 4° C. for 1 hour. Then, 150 μL of PBS solution containing 2% FBS (Corning, 21-040-CVC) is added to each well, centrifuged at 1400 rpm for 4 minutes, the supernatant is removed, and the wells are washed once more. Then, 50 μL of Alexa Flour 647-labeled goat anti-human fluorescent secondary antibody (Jacksonimmuno, 109-605-088) diluted 1:800 is added to each well, and the 96-well plate is incubated at 4° C. for 0.5 hours. The cells are washed twice with PBS solution containing 2% FBS, then resuspended in 120 μL of PBS, and the cell surface fluorescence signal is detected using a flow cytometer (BD FACS Celesta), obtaining the median fluorescence intensity (MFI). A dose-response curve is generated, and the half-maximal effective concentration (EC50) is calculated using non-linear regression with GraphPad software.

T1 sequence (P32004 20-1257): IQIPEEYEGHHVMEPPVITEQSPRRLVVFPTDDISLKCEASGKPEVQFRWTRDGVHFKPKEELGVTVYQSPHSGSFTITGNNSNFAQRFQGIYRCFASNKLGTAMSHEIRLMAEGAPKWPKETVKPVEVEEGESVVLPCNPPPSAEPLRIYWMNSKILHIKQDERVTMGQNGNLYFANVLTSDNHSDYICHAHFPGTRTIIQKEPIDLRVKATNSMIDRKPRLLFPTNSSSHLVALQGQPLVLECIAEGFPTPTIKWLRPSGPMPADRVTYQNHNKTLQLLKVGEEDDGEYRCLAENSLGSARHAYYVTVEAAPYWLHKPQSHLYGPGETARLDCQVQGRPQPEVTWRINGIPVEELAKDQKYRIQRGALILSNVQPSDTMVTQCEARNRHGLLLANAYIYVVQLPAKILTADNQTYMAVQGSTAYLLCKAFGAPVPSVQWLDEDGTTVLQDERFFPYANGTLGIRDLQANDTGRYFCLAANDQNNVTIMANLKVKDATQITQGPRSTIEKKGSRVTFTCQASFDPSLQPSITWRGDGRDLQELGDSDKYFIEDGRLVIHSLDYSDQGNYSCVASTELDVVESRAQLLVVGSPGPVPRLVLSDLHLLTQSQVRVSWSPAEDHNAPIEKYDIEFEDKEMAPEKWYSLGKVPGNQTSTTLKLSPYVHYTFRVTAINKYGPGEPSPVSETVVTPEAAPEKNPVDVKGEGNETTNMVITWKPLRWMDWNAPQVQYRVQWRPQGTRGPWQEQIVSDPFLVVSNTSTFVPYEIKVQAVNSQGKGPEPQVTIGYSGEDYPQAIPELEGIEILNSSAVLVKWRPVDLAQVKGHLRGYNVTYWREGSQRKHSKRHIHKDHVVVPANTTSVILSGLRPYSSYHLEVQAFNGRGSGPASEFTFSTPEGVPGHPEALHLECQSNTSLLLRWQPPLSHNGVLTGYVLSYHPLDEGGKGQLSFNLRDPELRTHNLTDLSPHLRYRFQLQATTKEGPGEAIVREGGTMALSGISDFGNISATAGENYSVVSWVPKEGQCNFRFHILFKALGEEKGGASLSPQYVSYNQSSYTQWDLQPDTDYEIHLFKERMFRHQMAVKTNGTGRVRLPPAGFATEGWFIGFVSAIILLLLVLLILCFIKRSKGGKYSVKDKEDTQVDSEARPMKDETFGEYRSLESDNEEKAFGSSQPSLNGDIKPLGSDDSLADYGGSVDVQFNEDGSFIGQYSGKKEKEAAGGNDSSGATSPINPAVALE

Row | EC50 [nM] | Binder
1 | 1.05 | B1
2 | 1.48 | B2
3 | 1.68 | B3
4 | 1.03 | B4
5 | 24.3 | B5
6 | 0.404 | B6
7 | 1.06 | B7
8 | 6.59 | B8
9 | 2.15 | B9
10 | 0.377 | B10
11 | 2.18 | B11
12 | 2.03 | B12
13 | 9.27 | B13
14 | 1.93 | B14
15 | 10.4 | B15
16 | 0.676 | B16
17 | 0.853 | B17

Row | EC50 [nM] | Binder
18 | 0.633 | B18
19 | 0.996 | B19
20 | 0.82 | B20
21 | 0.852 | B21
22 | 6.84 | B22
23 | 2.13 | B23
24 | 5.32 | B24
25 | 2.33 | B25
26 | 0.646 | B26
27 | 24.7 | B27
28 | 2.99 | B28
29 | 7.82 | B29
30 | 0.838 | B30
31 | 0.562 | B31
32 | 0.738 | B32
33 | 0.853 | B33

From patent US20260152552A1 (CURON BIOPHARMACEUTICAL SHANGHAI, published 2026)
